Publication PMC4228062

Target: recombinant galectin-7 R74S (human)
Assay: native gel or EMSA; recombinant gal-7 (wild type or R74S) on a native gel, detected by immunoblot; monomeric and dimeric forms

Work on “recombinant galectin-7 R74S (natural protein)” yielded a stoichiometry N of 2.
